Experimental data published in paper PMC4351760.

Molecular target: R276S/M395R GltPh mutant (Pyrococcus horikoshii) (UniProt O59010)
Assay: crystal structure

- stoichiometry N: 3
Substance: R276S/M395R GltPh mutant (from UniProt O59010 1-417) (natural protein)
